Results taken from the RNAGym collection of RNA variant scans (doi:10.1073/pnas.2313332121).

B1: TPR t1 (parent)
chain: GACCAAUCUGCCCUCAGAGCUCGAGAACAUCUUCGGAUGCAGAGGAGGCAGGCUUCGGUGGCGCGAUAGCGCCAACGUCCUCAACCUCCAAUGCAUCCCACCACAUGAUGAUGCCUGAAGAGCCUUGGUUUUUUG

Variants of: B1
Experiment: polymerase ribozyme fitness, log enrichment relative to wild type (log ratio); higher = more active; in vitro selection for triplet polymerase activity
Summary of the method: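 Fitness is a logarithmic measure of how a genotype enriched relative to the wild type, with replicate averages weighted by inverse variance. The logarithm uses base 2, and enrichment came from Illumina sequencing of input and output libraries. Those libraries were PCR-built, transcribed mutants of each subunit of a heterodimeric triplet polymerase ribozyme, passed through one triplicate in vitro selection round that included frozen incubation at −7 °C, gel excision of extended constructs and streptavidin-bead capture. Genotypes were kept only if they had ≥10 input reads and ≥1 read per output.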

Variant	polymerase ribozyme fitness (log ratio)
U9G G48U C49U G69U G120U	0.977
U9C C40U U112G	0.239
U9G G19U G44A G58C C64U A74G	-4.3
U9G G65U	-5.74
U9C G36U C104A C115A	-1.3
U9G C15A C70G A111U G117C	-5.91
G10A G120U G135C	1.62
G10A C53A	-0.00777
G10A U14A C56G	-3.83
G10A A18C G122A C123G	-0.417
G10C C15A G39C	-4.62
G10U C15G	-1.83
G10A C13U U14A G61U C104G	-6.29
U9G G63U G120C	0.237
G10U C56A A74G U132C	-1.83
G10A C53G G61A A95G	-0.503
G10U C49U C72G C82A C114A	-2.83
G10C C73A G128A	-2
G10A C70A	-1.32
G10A C70G	-2.45
G10U A75U G77A C86A	-1.69
G10C C20A G39C A46C	-5.66
G10U C82G G110A	-1.83
U9G A18U C49A G93A G110C	-5.65

Variant	polymerase ribozyme fitness (log ratio)
G10U G60U	-0.931
U9G G10U C94U	-0.059
U9C C31U C56A A103U G120U	-6.8
G10U C62U C88U C89G A121G U132C	0.563
U9G G52U C70G G122A	-4.3
U9G C13U C73U A119G	1.11
U9G G52A U112C	1.21
G10U G47U G110U G117U G122A	-4.52
G10A A27G G71A C86U	-3.87
G10C C11U C104A	-0.93
G10U G23U A26G G63A C114G	-5.43
G10C C11A C31A G47U G107U G113A	-2.42
U9C C40G C101U	-0.436
U9G U92G	-1.92
G10C G42C G44U C72U U87G	-5.88
G10U G52U C73G	-0.827
C11A A16U A24U C31G C34G A37C C73A C115U G117C	-7.35
U9G C53U A95C C115A	0.969
U9C C85G	-1.02
U9C G47U G63U	-1.41
G10A G48C U54A C94U G110U A121C C123G	-1.01
G10U G17C G45U G93U C123G	-4.78
U9G G36U C70U A74U	-1.42
U9C C70U	-0.0921

Variant	polymerase ribozyme fitness (log ratio)
U9C A111U A121C U126A U130G	-4.36
C11A A18C A43C C53U	-4.45
G10U C13U G57C G58U C88U G107A C123U	-6.52
G10U A18G A43C C72U C80U C85U G120U	-3.18
U9C C11U G71A A111C	-1.02
G10C C20A	-3.95
U9G U78C C89U	-0.533
U9G C12G G93C	-0.487
U9G C73U G113A	-0.47
G10U C53G C56U A74C C76A A95G G122U	-0.515
U9G A26C U54A U55A C88U G93A	-6.29
U9C G17A A43U A50U A74C G120U	-4.05
G10U A84G C86A	-0.969
G10A U132A	0.124
G10A G47U C56U C82A A83G	-2.51
U9C C34U C56G G77A U106A G113A A121G	-3.53
G10A C11A A18C G42C G44A G60A C101A	-4.31
U9G C22G U81C	-3.31
U9G C15A G58A C97U U116G U129G	-5.21
U9G C56U	-0.823
G10A C15A C73U	-2.06
G10A A68G U112C	-1.25
G10A U96A	-0.657
G10A C15U G17A A41U C72U A105U G120A G122A	-5.83

Variant	polymerase ribozyme fitness (log ratio)
G10U C62A	-1.53
G10U C62U	-0.108
G10A G71C	-0.717
G10U A90G	-0.702
G10A C102A	-1.65
G10C G42A A43U C80A U132A	-5.05
U9C C15G A43U	-1.5
U9C A37U A66C	-1.35
G10U C28U C53U C73U U96C C104A G110A	0.843
G10U C53U	0.0146
U9G C97U A100C A108G	-2.87
G10A C28G G47U U59G	-5
G10C C15U	-0.996
G10A C40U A46C U130G	-2.46
G10C G63A	-1.49
G10A A27G C31G G107C	-2.98
C11A A18C	-3.94
G10U G47C C64U	-1.28
U9G U14A C31U G69U G117A G127C	-4.64
G10U C11G G35A C64U C123A	-5.01
U9G C13G C53G C56U C86U A111U	-2.52
U9G C53A A95C U112G	-0.929
U9C U14A U21C A43C G117A A119G	-1.44
G10U U14A C53G A95U G120U	0.647

Variant	polymerase ribozyme fitness (log ratio)
G10A C12U G71U U112A	1.43
U9C C15A G45C G57C U59A	0.541
U9C G48U G52C G117U	-2.68
U9G G10U C12G A111G	0.61
U9G A16G C73G G110A U132A	-2.97
G10A C11A U14G U54C C56U U81A	-2.09
G10U G44C G61C	-3.37
G10U C56U U116A	-3.65
G10A U55C C70U	-0.798
G10C U59G C88A C104A	-3.65
G10U A46U C73U C88A U133A	-2.31
U9G C20U G51U C94U	-4.89
U9G C72U C86A	-0.508
G10C C72U A118G	-1.84
G10U A37U G52A G77C G120U	0.713
G10A C98U C115A	-2.67
U9C U81A U116A G122U C124U	-0.783
U9G C11U G35U G69U C89U	-3.13
G10A A74G A91C C124G	-0.108
U9C U54A C101U	0.158
U9C C64A A74U U112G	-6.76
U9G C12A U14G G63U C99A G120C	-6.39
G10U U14A C73A A83U	-1.57
U9G G60A A90C	-0.347

Variant	polymerase ribozyme fitness (log ratio)
U9C G45A C124U U126A U133A	-0.505
U9C G19U C70U	-3.94
G10C A83U	-1.28
U9G G39A	0.968
U9G C49A C104A	-1.57
G10A C20U	-1.18
U9C G17U C20G G25C C115U	-6.98
U9C U21A C49G C101A	-1.26
U9G U55A	-0.0521
G10A C12A C102A	-2.74
G10U C79A	-0.723
U9G C40G C94U C123A U125A	-0.873
U9G C82G	-0.102
U9G U38A G47C C49A	-3.06
G10A G63A C86U	-1.07
U9C C15G U106A	-1.27
G10C C11U C62G A84U A108G	-4.22
G10C G63A A75G C123U	-0.173
U9G C12U C13G G47C C56U	-1.38
G10U C53G G61C A84U	-1.21
G10U A50C C80U G120U	-0.0895
G10A U133G	-0.322
U9G A37U G39A G45U A46U C94G	-5.9
G10U U38G A41G	-1.27

Variant	polymerase ribozyme fitness (log ratio)
U9C G42C C53A U55C U130G	-1.45
G10U U21G A46U	-3.02
G10A G19A	-0.895
U9G G65C G69C	-5.37
U9C C13U G48A A74C U81G C101U U126C	-2.71
G10A G42U	-1.32
U9G C12A G57U A111U C114A U133A	-5.59
U9G G44U G58A G60U C102U U106A U133C	-3.81
U9C C31U A37U	-5.02
G10U G61A	0.0248
G10C A46G C124U	-0.222
U9C A41U C70A U125A	-4.15
G10A G36U G44U G61U C88U A95G U96A G120A	-7.26
U9G C22G C101A C115U	-3.13
G10A A84U G110U	-1.93
U9C C28U G36U A121G	0.0298
G10C C13A G57U G61C A111U	-5.2
U9C C15A G44U G60C A91U	-1.82
G10U C114U	-2.39
G10A U33C	-4.02
U9G U59G C88A A118U	0.424
U9G C20A	-2.5
U9G C15A C97U A108G G120A	-1.87
